Measured values: patent US20230285585A1, “TREATMENT OF PULMONARY HYPERTENSION” (PHILOGEN S.P.A., priority 2020, published 2023)

Key:
[1] = system: Monocrotaline (MCT) induced pulmonary hypertension (PH) in C57BL/6 mice; experiment: Right heart catheterization in MCT induced PH mouse model (Example 4); type: in vivo; conditions: for pressure values in the right ventricle, RVPsys (result in words): in contrast to KSF containing control immunocytokines
Description: To induce Pulmonary Hypertension (PH), C57BL/6 mice (bodyweight: 25-30 g) were used. The animals were obtained from ZET facility (Zentrale Experimentelle Tierhaltung) of the University Hospital Jena (UKJ, Jena, Germany). Prior to PH induction, mice were allowed to acclimatize for at least 7 days with ad libitum access to food and water as well as controlled light/dark cycles. In this set of experiments, 50 animals were investigated divided into the following 7 experimental groups: • sham induced controls (n=10) • MCT induced PH (n=8) • MCT induced PH+MACI (n=8) • MCT induced PH+F8mIL9F8 in CrAb format (n=6) • MCT induced PH+KSFmIL9KSF in CrAb format (n=6) • MCT induced PH+F8_(IgG-HC4)-mIL9 (n=6) • MCT induced PH+KSF_(IgG-HC4)-mIL9 (n=6)
For PH induction, the Monocrotaline (MCT, Carl Roth, Germany) method was used.
The sham induced controls were injected with 30 μl NaCl not containing MCT at day 1 (single dose; intraperitoneally, i.p.). […] The other 6 experimental groups were injected with MCT (single dose; intraperitoneally, i.p.; 60 mg/kg body weight; volume 30 μl). Animals in the MCT induced PH+MACI group received the drug (Macitentan, Actelion Pharmaceuticals Ltd.) from day 14 to day 28 (once daily; per os; 15 mg/kg body weight).
Animals in the MCT induced PH+F8mIL9F8 in CrAb format group received F8mIL9F8 3 times on days 14, 16 and 18 (intravenously, i.v.; 200 μg/injection; volume 154 μl). Animals in the MCT induced PH+KSFmIL9KSF in CrAb format group received KSFmIL9KSF 3 times on days 14, 16 and 18 (intravenously, i.v.; 198 μg/injection; volume 182 μl).
Animals in the MCT induced PH+F8_(IgG-HC4)-mIL9 group received F8_(IgG-HC4)-mIL9 3 times on days 14, 16 and 18 (intravenously, i.v.; 261 μg/injection; volume 137 μl). Animals in the MCT induced PH+KSF_(IgG-HC4)-mIL9 group received KSF_IgG-HC4mIL9 3 times on days 14, 16 and 18 (intravenously, i.v.; 258 μg/injection; volume 161 μl).
On day 28 after MCT injection, mice of all experimental groups were deeply anesthetized with a single dose of 100 mg/kg body weight ketamine and 10 mg/kg body weight Xylazin in approximately 60 μl each administered i.p.
Right heart catheterization using a 1.4 F micro conductance pressure-volume catheter (Model SPR-839; Millar Instruments Inc; PowerLab system, ADInstruments Ltd., Oxford, UK) was performed via the right vena jugularis interna to measure the systolic right ventricular pressure and thereby verify the success of the experimental setting. Mice were then sacrificed in deep anesthesia and analgesia to carry out cardiac blood collection after thoracotomy and to harvest the organs.
(§1) Statistical analyses were performed using IBM SPSS statistical software, version 25.0 (IBM SPSS Statistics for Windows. Armonk, N.Y., USA). Data are expressed as mean±standard deviation. […]

[2] = system: Monocrotaline (MCT) induced pulmonary hypertension (PH) in C57BL/6 mice; experiment: Echocardiographic assessment in MCT induced PH mouse model (Example 4); type: in vivo; conditions: in contrast to KSF containing control immunocytokines
Procedure: To induce Pulmonary Hypertension (PH), C57BL/6 mice (bodyweight: 25-30 g) were used. The animals were obtained from ZET facility (Zentrale Experimentelle Tierhaltung) of the University Hospital Jena (UKJ, Jena, Germany). Prior to PH induction, mice were allowed to acclimatize for at least 7 days with ad libitum access to food and water as well as controlled light/dark cycles. […]
Echocardiographic assessment was performed on day 28 using the Vevo 770 Rodent-Ultrasound-System, Visual Sonic, Canada, 17 MHz probe RMV176. […] Body temperature and respiratory rate were continuously monitored. All surrogate parameters of right ventricular (RV) morphology and function were assessed, among others, RV basal and medial diameters (in mm), RV length (in mm), tricuspid annular plane systolic excursion (TAPSE, in mm), right atrial area (RA area, in mm^2) or main pulmonary artery diameter (MPA, in mm).
as §1

[3] = target: T1, recombinant fibronectin 11A12 domain (EDA) (Homo sapiens, UniProt P02751); experiment: Biacore surface plasmon resonance binding analysis; conditions: SPR, BIAcore X100, CM5 chip coated with recombinant fibronectin 11A12 domain
T1 construct: recombinant fibronectin 11A12 domain
T1 sequence (P02751 1629-1905 limits assumed): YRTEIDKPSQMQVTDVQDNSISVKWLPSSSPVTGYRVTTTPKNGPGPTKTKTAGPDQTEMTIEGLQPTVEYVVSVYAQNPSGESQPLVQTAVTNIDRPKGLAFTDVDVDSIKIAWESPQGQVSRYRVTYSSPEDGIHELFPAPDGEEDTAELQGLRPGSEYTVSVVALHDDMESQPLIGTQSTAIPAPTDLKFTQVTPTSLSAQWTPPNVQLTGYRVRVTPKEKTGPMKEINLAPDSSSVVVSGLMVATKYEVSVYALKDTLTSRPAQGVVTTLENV
Procedure: Binding affinity was determined by surface plasmon resonance using a BIAcore X100 instrument using a CM5 chip coated with recombinant fibronectin 11A12 domain. Samples were injected as serial-dilution, using a concentration range from […] to 125 nM.

apparent KD [3]	Molecule	other results
–	F8(IgG4-HC)-mIL9: two murine IL9 moieties fused to C-termini of heavy chains of F8 IgG4; SEQ ID NOs: 61 and 62	treatment effects relative to MACI (result in words) [1]: improved compared with the effects achieved by MACI; pressure values in the right ventricle, RVPsys (result in words) ([1]; listed as F8_(IgG-HC4)-mIL9): significantly reduced; pressure values in the right ventricle, RVPsys (result in words) ([1]; listed as IgG-HC4mIL9): significantly reduce; echocardiographic signs of right ventricular load and dysfunction (result in words) [2]: significantly improved a variety
in the nM range	F8(db)-hIL9: human IL9 conjugated to the C-terminus of the F8 diabody; SEQ ID NO: 22	–
in the nM range	F8(scFv)-hIL9-F8(scFv): human IL9 conjugated at N- and C-terminus to an F8 scFv, CrAb format; SEQ ID NO: 18	–
in the nM range	hIL9-F8(db): human IL9 conjugated to the N-terminus of the F8 diabody; SEQ ID NO: 23	–
in the nM range	mIL9-F8(db): murine IL9 conjugated to the N-terminus of the F8 diabody; SEQ ID NO: 21 (protein, murine IL9 conjugated to the N-terminus of the F8 diabody (mIL9-F8(Db))) QRCSTTWGIRDTNYLIENLKDDPPSKCSCSGNVTSCLCLSVPTDDCTTPCYREGLLQLTNATQKSRLLPVFHRVKRIVEVLKNITCPSFSCEKPCNQTMAGNTLSFLKSLLGTFQKTEMQRQKSRPGGGGSGGGGSGGGGSEVQLLESGGGLVQPGGSLRLSCAASGFTFSLFTMSWVRQAPGKGLEWVSAISGSGGSTYYADSVKGRFTISRDNSKNTLYLQMNSLRAEDTAVYYCAKSTHLYLFDYWGQGTLVTVSSGGSGGEIVLTQSPGTLSLSPGERATLSCRASQSVSMPFLAWYQQKPGQAPRLLIYGASSRATGIPDRFSGSGSGTDFTLTISRLEPEDFAVYYCQQMRGRPPTFGQGTKVEIK	–
in the nM range	F8(db)-mIL9: murine IL9 conjugated to the C-terminus of the F8 diabody; SEQ ID NO: 20 (protein, of murine IL9 conjugated to the C-terminus of the F8 diabody (F8(Db)-mIL9)) EVQLLESGGGLVQPGGSLRLSCAASGFTFSLFTMSWVRQAPGKGLEWVSAISGSGGSTYYADSVKGRFTISRDNSKNTLYLQMNSLRAEDTAVYYCAKSTHLYLFDYWGQGTLVTVSSGGSGGEIVLTQSPGTLSLSPGERATLSCRASQSVSMPFLAWYQQKPGQAPRLLIYGASSRATGIPDRFSGSGSGTDFTLTISRLEPEDFAVYYCQQMRGRPPTFGQGTKVEIKGGGGSGGGGSGGGGSQRCSTTWGIRDTNYLIENLKDDPPSKCSCSGNVTSCLCLSVPTDDCTTPCYREGLLQLTNATQKSRLLPVFHRVKRIVEVLKNITCPSFSCEKPCNQTMAGNTLSFLKSLLGTFQKTEMQRQKSRP	–
